# According to US5985822A, “Inhibition of glial cell proliferation with N-CAM homophilic peptides” (The Scripps Research Institute, priority 1995, dated 1999):
# B1: N-CAM: neural cell adhesion molecule purified from early postnatal rat brains by affinity chromatography, mainly polysialylated embryonic form (protein, UniProt P13596 20-858, looked up)
# Neural cell adhesion molecule …: LQVDIVPSQGEISVGESKFFLCQVAGDAKDKDISWFSPNGEKLSPNQQRISVVWNDDDSSTLTIYNANIDDAGIYKCVVTAEDGTQSEATVNVKIFQKLMFKNAPTPQEFKEGEDAVIVCDVVSSLPPTIIWKHKGRDVILKKDVRFIVLSNNYLQIRGIKKTDEGTYRCEGRILARGEINFKDIQVIVNVPPTVQARQSIVNATANLGQSVTLVCDADGFPEPTMSWTKDGEPIENEEEDDEKHIFSDDSSELTIRNVDKNDEAEYVCIAENKAGEQDASIHLKVFAKPKITYVENQTAMELEEQVTLTCEASGDPIPSITWRTSTRNISSEEKASWTRPEKQETLDGHMVVRSHARVSSLTLKSIQYTDAGEYICTASNTIGQDSQSMYLEVQYAPKLQGPVAVYTWEGNQVNITCEVFAYPSATISWFRDGQLLPSSNYSNIKIYNTPSASYLEVTPDSENDFGNYNCTAVNRIGQESLEFILVQADTPSSPSIDRVEPYSSTAQVQFDEPEATGGVPILKYKAEWKSLGEEAWHSKWYDAKEANMEGIVTIMGLKPETRYAVRLAALNGKGLGEISAATEFKTQPVREPSAPKLEGQMGEDGNSIKVNLIKQDDGGSPIRHYLVKYRALASEWKPEIRLPSGSDHVMLKSLDWNAEYEVYVVAENQQGKSKAAHFVFRTSAQPTAIPANGSPTAGLSTGAIVGILIVIFVLLLVVMDITCYFLNKCGLLMCIAVNLCGKAGPGAKGKDMEEGKAAFSKDESKEPIVEVRTEEERTPNHDGGKHTEPNETTPLTEPEKGPVETKSEPQESEAKPAPTEVKTVPNEATQTKENESKA
# modifications: polysialylated embryonic form
# Experiments:
# [1] = system: tyrosine phosphorylated proteins (60-70 kDa and approximately 120 kDa); test: Anti-phosphotyrosine immunoprecipitation and immunoblot of bFGF-stimulated astrocytes; type: cell-based, rat; conditions: N-CAM 2 μg/ml 30 minutes, then bFGF 100 ng/ml 10 minutes
# Procedure: Astrocyte cells were seeded at a density of 7×10^4 /cm^2 in a 100 mm tissue culture dish in Dulbecco's modified essential medium (DMEM) containing 10% fetal calf serum and gentamycin (5 μg/ml) at 37 degrees C with 7% CO2. After overnight culture, the medium was replaced with serum-free medium and the cells are cultured for an additional 48 hr. The serum-starved cells were treated for 30 minutes in the presence of N-CAM (2 μg/ml) or buffer alone and then stimulated for 10 minutes with bFGF (100 ng/ml) to stimulate tyrosine phosphorylation through the FGF receptor. […]
# Immunoblotting was performed by incubation with the indicated antibodies followed by ^125 I-labeled protein A; the resulting autoradiogram was exposed for 14 hr on XAR film at -70° C. or scanned on a Molecular Dynamics PhosphorImager (Sunnyvale, Calif.). The amount of reactivity with antibodies to phosphotyrosine relative to the amount of reactivity with antibodies to each specific protein can be calculated from imaging these gel blots, in extracts from N-CAM treated cells vs. non treated cells. This determines whether the FGF receptor or other proteins analyzed in this same paradigm are changed in their levels of tyrosine phosphorylation upon N-CAM treatment.
# C6 glioma cells = test: Proliferation of C6 glioma cells in SFM at low cell densities; type: cell-based; conditions: externally added N-CAM
# [2] = system: dividing astrocytes in cerebral cortex, hippocampus or striatum; test: In vivo labeling index of dividing astrocytes (BrdU with GFAP or S100) after stab lesion with infusion; design: species or system rat; conditions: for Labeling Index (Experimental): N-CAM 250 μg/ml, 3rd Ig domain 5 mg/ml, N-CAM peptide 1 mg/ml, 3 μl infused, n=3
# Procedure: Samples were injected into the brains of rats (Wistar Albino, Male, 200-250 g, Charles River, anesthetized with xylazine (12 mg/kg) and ketamine (90 mg/kg) through a 26 gauge needle. The needle point was placed at the stereotactic coordinates of either the hippocampus, cerebral cortex or striatum (Table 2). Bilateral injections of 3-4 μl were made using an Hamilton syringe. Each animal received an infusion of either the purified rat N-CAM (250 μg/ml), the third Ig domain of chicken N-CAM (5 mg/ml), or the rat N-CAM peptide KHIFSDDSSE (SEQ ID NO 2) (1 mg/ml) in PBS into one hemisphere; the other hemisphere was infused with the random peptide (SFSISDEDHK (SEQ ID NO 9), 1 mg/ml in PBS) as a control. The experimental and control sides varied between animals and choice of side had no significant effect on the results. Three μl of each protein or peptide was infused at a rate of 0.2 μl per minute after which the needle was left in place for 5 minutes and then removed. In one experiment, a group of animals received basic fibroblast growth factor (bFGF, 450 ng) in the solutions which contained either the random peptide or the purified N-CAM.
# The samples were either purified N-CAM in phosphate buffered saline (PBS), N-CAM peptide KHIFSDDSSE (SEQ. ID. NO. 2) (1 mg/ml or 10 mg/ml) in PBS, or the corresponding random peptide SFSISDEDHK (SEQ ID NO 9) (1 mg/ml) (see Example 3 above). The injection rate was about 0.2 μl/min; the needle was left in place for 5 minute after the injection. Each animal received either the purified N-CAM or the N-CAM peptide injected into one side of the brain and the corresponding structure on the other side was injected with the random peptide as a control.
# Three animals were examined for each treatment and brain region described. Animals were maintained for a postinjection survival time of about 70-72 hours. During that time they received five injections of bromodeoxyuridine (Brdu) dissolved in 0.007 N NaOH (120 mg/kg, intraperitoneal). Two of the three animals that had been injected in the hippocampus received Brdu approximately 18, 28, 42, 52, and 70 hours after the stereotactic surgery. All of the animals that had been injected in the cerebral cortex or the striatum and one animal injected in the hippocampus received Brdu approximately 2, 18, 28, 42, and 52 hours after the stereotactic surgery.
# Animals were perfused under anesthesia with about 30 ml of ice-cold PBS followed by about 400 ml of ice-cold […] in PBS. The brains were then removed and postfixed for 2-16 hours in 4% paraformaldehyde in PBS then placed in succeeding solutions of ascending concentrations of sucrose (12%, 18%, and 24%). The brains were then sectioned on a cryostat at a thickness of 10 μm.
# Non-specific binding on the sections was blocked by incubation in 8% fetal bovine serum (FBS) in PBS. Sections were then incubated in polyclonal antibody to glial fibrillary acidic protein (GFAP; 1:100 dilution, Dako) in 0.2% Triton X-100, 8% FBS/PBS for 24 - 48 hr at 4° C. The sections were processed using a biotinylated secondary antibody and the Vectastain ABC kit (Vector), and stained with a diaminobenzidine peroxidase substrate kit from Vector or Pierce. The sections were then incubated for 6 minutes in a solution of Proteinase K (Dako), rinsed and incubated in 2 N HCL for 20 minutes at 37° C. The sections were rinsed and blocked in 8% FBS/PBS and incubated in a monoclonal antibody to Brdu (1:40 dilution, Dako), 0.01% Triton X-100, 8% fetal bovine serum/PBS for 24-48 hr at 4° C. The sections were processed using a biotinlyated secondary antibody and the Vectastain ABC kit (Vector), and stained with a VIP peroxidase substrate kit from Vector giving the Brdu positive cells a red color. The sections were then rinsed in PBS and coverslipped in glycerol/PBS.
# GFAP positive cells and cells positive for both GFAP and BRDU were counted under a Zeiss Axiophot light microscope. […]
molecule,measurement,setting,value
B1,tyrosine phosphorylation of a 60-70 kDa protein and a protein at approximately 120 kDa,[1],diminished tyrosine phosphorylation
same,rate of proliferation of C6 glioma cells,C6 glioma cells,decrease their rate of proliferation
same,"Percent Difference of labeling index, experimental vs control",[2]; cerebral cortex,-52.1 ± 4.5%
same,Labeling Index (Experimental),[2]; cerebral cortex,10.2 ± 1.5%
same,effect on mitogenic effects of bFGF in vivo,"[2]; cortical lesion, bFGF 450 ng co-infused",able to oppose the mitogenic effects of bFGF
same,"Percent Difference of labeling index, experimental vs control",[2]; hippocampus,-25.2 ± 1.6%
same,Labeling Index (Experimental),[2]; hippocampus,14.6 ± 2.3%
same,inhibition of astrocyte proliferation,[2]; infusion into cerebral cortex at 100 μg/ml,0-10%
same,"Percent Difference of labeling index, experimental vs control",[2]; striatum,-20.8 ± 2.1%
same,Labeling Index (Experimental),[2]; striatum,20.7 ± 0.7%
